Source: the DeepSol protein solubility set

experiment: soluble on expression in E. coli; label from the status in PepcDB or PDB records

Row | Sequence | soluble on expression in E. coli
1 | MSLVSGFSVTLGEATSSNPSYKSAVMDYFKAKTDKDLQSADIKIVTASEVNEVSRGVTGRVYSPSQILSCAMVDLSYSDGIKVSVDTSKIRVVTPEMYASALRSSGIDRGYVVVTSPVPASGEAALAGVLKSYEIAVGEQIPEEAKRVSVEEIYLQSRLVNETNATGDRVAELFDEVKNRTQSQNLQDPADIQRVVVDVSQQMNINLTETQVQQVADSVAASQRVQGSLTEFKQRLEGVSQQVGGSGILDQIYAFLQSIYNYIMGIASPEGHHHHHH | soluble
2 | MGSDKIHHHHHHMLSGENKMLDIDKSTVDFLVTENMVQEVEKVLSHDVPLVHAIVEEMVKRDIDRIYFVACGSPLNAAQTAKHLADRFSDLQVYAISGWEFCDNTPYRLDDRCAVIGVSDYGKTEEVIKALELGRACGALTAAFTKRADSPITSAAEFSIDYQADCIWEIHLLLCYSVVLEMITRLAPNAEIGKIKNDLKQLPNALGHLVRTWEEKGRQLGELASQWPMIYTVAAGPLRPLGYKEGIVTLMEFTWTHGCVIESGEFRHGPLEIVEPGVPFLFLLGNDESRHTTERAINFVKQRTDNVIVIDYAEISQGLHPWLAPFLMFVPMEWLCYYLSIYKDHNPDERRYYGGLVEY | not soluble
3 | MSLGNIKTLLENRFKKPTSDKMESLAKKRLEGELSPFLNGFTNPKLSSQEEAKFRQLLEEYSFSNEISKHDLQQLCHLSAQVKQIHHQAVLLHGERIKKVRELLTSYREGAFSAWLLLTYGNRQTPYNFLVYYELFSTLPDSLKLELEKLPRQAVYTLAAREGTQEKKEAIIRNYQGETKGELLEIIRKEFPLLPTDRRHTPLSQKAFTLLAKGTKLLRQCTDVSHEELIALEKLIKKLQKVTTNLLSNTKVSRNDNEIQNSRNEGHHHHHH | soluble
4 | MRLISKPVLCNYYVTYRCNATCGFCDIWEKPSPYVTPEAVEQNMRDLKKLGVKVIDFTGGEPLLHREMDTLLRIAKKYGMITTLTTNALLYPKWAERLKGLIDMLHFSLDSPDKAEHDTLRGVACFDFVLESIEKAKALGERPDIIFTVFNHNIHLIKRMYEEICLPNNLILILNPSFEYNQVEVGTGLQKKELDILSYWAKQKNIYINEAFIQLRLDGGNHTADPVCKAASSTLVISPENKLVLPCYHLGTDSFQIENNLFDLYHSKEVRAIIAQEGKLDACEGCTINCYMQPSFAVEINKYWFKAMPSTLKYSREKGTWKQLFR | not soluble
5 | SNAMSLEKLDTNTFEQLIYDEGKACLVMFSRKNCHVCQKVTPVLEELRLNYEESFGFYYVDVEEEKTLFQRFSLKGVPQILYFKDGEYKGKMAGDVEDDEVEQMIADVLED | soluble
6 | MSLGKTLLVDSKGLILDGKHIIPVMGEIHYSRVPESEWRREIRKMKAGGINIISTYIFWIHHEPEEGKWNWSGNHNLRRFVRICAEENVMLVLRLGPFCHGEVYQGGIPSWVHEKAGQNPKYKIRARTPGFLEDCTELYNTIFAQVNGLLWKDGGPVVGVQIENESRGPWDYLEALKNIAVKAGFDVPFYTRTGWPALRGKEVFGQLLPLYGDYADGFWDRKLEDMPGSYADAFIMRDKRMSSAIATETFSKEELSEDSPSLSSKLSYPYFTCELGGGMMPAYHRRININGKELKPLVICKLGSGSNLPGYYMYHGGTNPYNPLHTMGETQSSPGTNHNDLPHMTYDFQAPLGEVGQVFETPFHEGRFIHQMLTDWGSELLQMNVDSLSRHYARRGAFEFYNDYVRIKNESGTSHVTFKDYRTEGATIDWTTVEPFCKVDGLIYFIEIRGKKPQISVDGKVYTCKLNKEGHHHHHH | not soluble
7 | MNIVALHVVLYHPEIPANTGNIARTCAATNTTLHLIRPLGFSTDDKMLKRAGLDYWEFVNVVYHDSLEELFEAYKKGKFFFITKFGQQPHTSFDYTDLDEDYFFVFGRETSGLPKDLIQNNMDRCLRLPMTEHVRSLNLSNTAAILVYEALRQQNYRDLK | soluble
8 | MGSDKIHHHHHHMTKTKNEKEEFIRVGTTLYKLVNQPRLNGGYVRKRIVWNNETLRQDYGKDYLATVPKYDGFCTVPNHVDYRPVVDKFLNLYEPIEHCPQQGEFPCIQSLVRHIFGEQYELGMDYLQLLYLQPVQKLPILLLVSEERNTGKSTFLNFLKALFQNNVTFNTNEDFRSQFNSDWAGKLLIVVDEVLLNRREDSERLKNLSTTLSYKVEAKGKDRDEIAFFAKFVLCSNNEYLPVIIDAGETRYWVRKIDRLQSDDTDFLQKLKAEIPAFLHFLQHRQLSTEKESRMWFAPSLLHTEALRKIIRSNRNRLEIEIHELILDIMDSVGTDTFSFCYNDLLLLLVHSQVKVEKYQVRKVLQECWKLTPASNGLTYTTYQFNYNRECRYEPIKRVGRFYTVTRKQLDSL | not soluble
9 | MGSDKIHHHHHHMDDTTFLSTKEKILEIKPLMESAFGNILGYQELENMLAICTLVPFSNNQILFHQGDRIKGIYIIIKGTVDLIARTLGKGITKIETCLASDFLGETSFLLNEPSATSAVAKDNVTCLFIPSAYFELMPAFSPEAKYKIMKAIGYQACGRLKQLHDKIIDFISHSDMQSLSFLGRVIQTFTQPKIHTLDESGVDKDQIYKKTLFNSFTQDETDELLEHAIPLTANKNCVLIHENETIPVCYIVIYGAVQSNVIQNSKIAKLSVIGPDSLFASTACFLSDTKFSITFITCESATLLKISEAELQYFQKNKPMIWYKLFNLICGSIISLARSLKKLDVRLNIEKYNQ | not soluble
10 | MDLPYYHGCLTKRECEALLLKGGVDGNFLIRDSESVPGALCLCVSFKKLVYSYRIFREKHGYYRIETDAHTPRTIFPNLQELVSKYGKPGQGLVVHLSNPIMR | soluble
11 | MFKILLALCIVGCSFAAPIHGDVDDELLGLAWEAAATSVNNGNRGKFWVPIEIQSSDKNGAVTNLVVVFQESWCSVEEGNDLEDVCESMCPVYYGGAKATYRVTATESNGGSDFESVRIE | not soluble
12 | MSLSSKRDIEANTDLNSITYIPTFPEPFERDNSHTTASFVSIQIRLLVASVTEENFLDTEHQIYYLLQRGSFSVYISYWKLLIQLFVNEFEAQQQKRDLNLPFRFDFSNLVHRLLYNLAQELITRTPDTIEKVKELALPLSGKYPIRPLFLSFLNKDNESDSAIIEALNPEVHPIFTTLKDLHRTNMSVSNITQNLFAVENKPNFLTMLSEFLKPLQGETLNDWIALILSEILAPGSQTSNQPSQPWIVQVPNVDVREVIEATEMGTKVNGIIKSLGTNNVNWNRVFNLMSTKFFLNKPVNATLSSLNYLFCILNSGPLVDQFFACDWSLYFKLRLSFLMYQWNYNSECLDLSSLPNIKKINKSIPLTKKSQLSLISVGKLNIELFLSRDEISKNPLFSSFHASFSEAYNNVPEYLAAVLISESKYFSLLVDNKSIIDELLISLVIKTYENNVIAFKELLKLVSKQKVIEVSRGIIASQNAQTINLVQALHDLGILDEVFEKLPIRDSLKLSPTAMHLGYLKFSEYIERNITLKTFVPTLDFIEAQTNIDELDEGHHHHHH | not soluble
13 | DAAVTPEERHLSKMQQNGYENPTYKFFEQMQNSGPSSGIEGRGSSGSSGSSGSSGPTPKTELVQKFRVQYLGMLPVDRPVGMDTLNSAIENLMTSSSKEDWPSVNMNVADATVTVISEKNEEEVLVECRVRFLSFMGVGKDVHTFAFIMDTGNQRFECHVFWCEPNAANVSEAVQAAC | soluble
14 | MVKLAEFSRTATFAWSHDKIPLLVSGTVSGTVDANFSTDSSLELWSLLAADSEKPIASLQVDSKFNDLDWSHNNKIIAGALDNGSLELYSTNEANNAINSMARFSNHSSSVKTVKFNAKQDNVLASGGNNGEIFIWDMNKCTESPSNYTPLTPGQSMSSVDEVISLAWNQSLAHVFASAGSSNFASIWDLKAKKEVIHLSYTSPNSGIKQQLSVVEWHPKNSTRVATATGSDNDPSILIWDLRNANTPLQTLNQGHQKGILSLDWCHQDEHLLLSSGRDNTVLLWNPESAEQLSQFPARGNWCFKTKFAPEAPDLFACASFDNKIEVQTLQNLTNTLDEQETETKQQESETDFWNNVSREESKEKPSVFHLQAPTWYGEPSPAAHWAFGGKLVQITPDGKGVSITNPKISG | soluble
15 | MRPMALPAWREVALPHEDIRRGRFDESTFAADLADVLAGRGPLEYRDPLTFFRKTYPTKGMVRLLGAVVRRLSGEKGGEPVVQIQTPFGGGKTHGLVALYHLFRSGEEARGTELYARVLEEAGVERIPEAKVAVFVGTAADPLKGRTPWGELALQLGHYGLLEEHDKARQAPGKERLYELFRAAGGPVLILMDEVAEYVARTVDPTALHKEGGSLEGGRAYQTQVLAFFQELTEAVKVAPQVALVMTIPSSAPYGEEGERALLQLQRIAGRLEAIYEPVKGWEIYDVIRTRLFEGIRDEGVVRKVAERYFELYRRLGTEVPDEARDPAYRERMRRAYPFHPELIDALYERWGTLSTFQRTRGVLRFLAEIVADLYGREHSAPLIHSAHVNLANPSIRRELVKHIGNEFDSVIAADIADPEGQAKAQRLDREMGSEYVRFQVASGLATAIFLYSFSGGERKGASPAQLRLAALRPEVPPPLVGDALGRLRELLWYLHEASGLYYFSSQPNLNRIVVERENAVDPEQIRQALRERLERIAGRELRVYLEPHSPQDVPDTKELKLAVLSEPSGSLAEELLEKAGTTFRTYKNTLFLLSPDPNSLGDLHRAARRYLALRSIREDRTLYGQLSAENRHRLDELLREADGALTQKLFMAYRRLTKPGRQGPETYDMGIPTVGEASTLAKRVYEYLKAREFLLERIAPRHLLSALAQGETGKPLQEVYEAFLRYPHLPVLKGWEVLEEAVRKGVAEGTFGLRVGERYYFQEPVLGIAWEEAFLVRKEALPPERESVVDGEKKGEASSEGVAPKPDSSEEEVPPDSSGGEARPERVQEYTVKVRLPWNRLSDFLRGVLMPLQREGAEMELQIELRARSQEGIPRATLDKIRETLDQLQAKVEEA | soluble
16 | SLRECELYVQKHNIQALLKDSIVQLCTARPERPMAFLREYFEKLEKEEAK | soluble
17 | VVAPITTGYTVKISNYGWDQSDKFVKIYITLTGVHQVPTENVQVHFTERSFDLLVKNLNGKSYSMIVNNLLKPISVEGSSKKVKTDTVLILCRKKVENTRWDYLTQVEKECKEK | soluble
18 | VTDVLLCVGNSMMGDDGAGPLLAEKCAAAPKGNWVVIDGGSAPENDIVAIRELRPTRLLIVDATDMGLNPGEIRIIDPDDIAEMFMMTTHNMPLNYLIDQLKEDIGEVIFLGIQPDIVGFYYPMTQPIKDAVETVYQRLEGWEGNGGFAQLAVEEE | soluble
19 | MVSQVRQNYHSDCEAAVNRMLNLELYASYTYSSMYAFFDRDDVALHNVAEFFKEHSHEEREHAEKFMKYQNKRGGRVVLQDIKKPERDEWGNTLEAMQAALQLEKTVNQALLDLHKLATDKVDPHLCDFLESEYLEEQVKDIKRIGDFITNLKRLGLPENGMGEYLFDKHSVKESS | soluble
20 | MNLNTPVEIPSGFTPISHAQQLLIMGSCFAENIGTLLAENKFRIDINPFGILYNPRSISMALREIISQKQYKASDLFLHRECWHSPMHHGSFSAATLADTLRNIQSRVEQAHKELKQLDRLMLTFGTAYVYEQKETGKVVANCHKLPEKNFIRRRLEIDEIVEDYTLLLDELISLNPQLKILFTVSPIRHIRDGMHANQLSKSVLLLAIDRLMQRYPQVTCYFPSYEIVLDELRDYRFYADDMVHPSTLTVNYLWERFSETFFTPETQSLIKECET | soluble
21 | MDERDVLWVGVCAMPKKVESEPMQRILAALTSSRVAHFEPMIFDAKTLFERPIHKWPVCDALIAFHSEGFPLERAIAYAELRRPYCLNGLREQRMLLDRSKVYEVLARERVPVPRHIVVRHDGADVGRTDTRFVEHDDYIEYCGERLFKPFVEKPIDAEDHRVCIYYARPLYGRRRLFRKTANQSSVFEPGWRRVRREGAFIYEEFIPSEHQSDIKVYAVGPEYAYAERRKSPVVDGIVERNAHGKELRFPVELSTAERCVAATITAAFRQFVCGFDLIRHADGNAFYVNDVNGFSFVKGSQSYYESCGRILAEHLARECARSAAVDGE | not soluble
